Data: patent US20150344570A1 (published 2015)

T1: FcγRIIb extracellular domain with C-terminal His tag (human, UniProt P31994 43-217)
T1 construct: extracellular domain; soluble analyte in Biacore; also called FcgRIIb; not shown: His tag at the C terminus
T1 sequence (looked up): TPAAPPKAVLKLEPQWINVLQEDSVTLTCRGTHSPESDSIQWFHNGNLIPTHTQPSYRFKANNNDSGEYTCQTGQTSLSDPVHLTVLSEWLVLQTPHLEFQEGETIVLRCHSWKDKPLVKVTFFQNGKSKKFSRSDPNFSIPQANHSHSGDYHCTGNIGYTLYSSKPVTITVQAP

B1: GpH7-A5/GpH7-B3 variant A327_03V/GpL16-k0 (antibody, human IgG1, kappa)
heavy 1: not shown
heavy 2: not shown
light: DIVMTQSPLSLPVTPGEPASISCQASESLVHSNRNTYLHWYLQKPGQSPQLLIYKVSNRFSGVPDRFSGSGSGTDFTLKISRVEAEDVGVYYCSQNTHVPPTFGQGTKVEIERTVAAPSVFIFPPSDEQLKSGTASVVCLLNNFYPREAKVQWKVDNALQSGNSQESVTEQDSKDSTYSLSSTLTLSKADYEKHKVYACEVTHQGLSSPVTKSFNRGEC
notes: change in the GpH7-B3 H chain only; also called He Ab
B2: GpH7-A5/GpH7-B3 variant K334_01G/GpL16-k0 (antibody, human IgG1, kappa)
heavy 1: not shown
heavy 2: not shown
light: B1 light
notes: as for B1
B3: GpH7-A5/GpH7-B3 variant P329_01G/GpL16-k0 (antibody, human IgG1, kappa)
heavy 1: not shown
heavy 2: not shown
light: B1 light
notes: as for B1
B4: GpH7-A5/GpH7-B3 variant K334_09D/GpL16-k0 (antibody, human IgG1, kappa)
heavy 1: not shown
heavy 2: not shown
light: B1 light
notes: as for B1
B5: GpH7-A5/GpH7-B3 variant A330_11K/GpL16-k0 (antibody, human IgG1, kappa)
heavy 1: not shown
heavy 2: not shown
light: B1 light
notes: as for B1
B6: GpH7-A5/GpH7-B3 variant A330_20W/GpL16-k0 (antibody, human IgG1, kappa)
heavy 1: not shown
heavy 2: not shown
light: B1 light
notes: as for B1
B7: GpH7-A5/GpH7-B3 variant A330_10E/GpL16-k0 (antibody, human IgG1, kappa)
heavy 1: not shown
heavy 2: not shown
light: B1 light
notes: as for B1
B8: GpH7-A5/GpH7-B3 variant A330_08L/GpL16-k0 (antibody, human IgG1, kappa)
heavy 1: not shown
heavy 2: not shown
light: B1 light
notes: as for B1
B9: GpH7-A5/GpH7-B3 variant A330_04F/GpL16-k0 (antibody, human IgG1, kappa)
heavy 1: not shown
heavy 2: not shown
light: B1 light
notes: as for B1
B10: GpH7-A5/GpH7-B3 variant E333_01G/GpL16-k0 (antibody, human IgG1, kappa)
heavy 1: not shown
heavy 2: not shown
light: B1 light
notes: as for B1
B11: GpH7-A5/GpH7-B3 variant E333_04F/GpL16-k0 (antibody, human IgG1, kappa)
heavy 1: not shown
heavy 2: not shown
light: B1 light
notes: as for B1
B12: GpH7-A5/GpH7-B3 variant E333_05P/GpL16-k0 (antibody, human IgG1, kappa)
heavy 1: not shown
heavy 2: not shown
light: B1 light
notes: as for B1
B13: GpH7-A5/GpH7-B3 variant E333_15Y/GpL16-k0 (antibody, human IgG1, kappa)
heavy 1: not shown
heavy 2: not shown
light: B1 light
notes: as for B1
B14: GpH7-A5/GpH7-B3 variant S324_16H/GpL16-k0 (antibody, human IgG1, kappa)
heavy 1: not shown
heavy 2: not shown
light: B1 light
notes: as for B1
B15: GpH7-A5/GpH7-B3 variant S324_12R/GpL16-k0 (antibody, human IgG1, kappa)
heavy 1: not shown
heavy 2: not shown
light: B1 light
notes: as for B1
B16: GpH7-A5/GpH7-B3 variant E333_13S/GpL16-k0 (antibody, human IgG1, kappa)
heavy 1: not shown
heavy 2: not shown
light: B1 light
notes: as for B1
B17: GpH7-A5/GpH7-B3 variant E333_02A/GpL16-k0 (antibody, human IgG1, kappa)
heavy 1: not shown
heavy 2: not shown
light: B1 light
notes: as for B1
B18: GpH7-A5/GpH7-B3 variant I336_03V/GpL16-k0 (antibody, human IgG1, kappa)
heavy 1: not shown
heavy 2: not shown
light: B1 light
notes: as for B1
B19: GpH7-A5/GpH7-B3 variant S324_14T/GpL16-k0 (antibody, human IgG1, kappa)
heavy 1: not shown
heavy 2: not shown
light: B1 light
notes: as for B1
B20: GpH7-A5/GpH7-B3 variant E333_08L/GpL16-k0 (antibody, human IgG1, kappa)
heavy 1: not shown
heavy 2: not shown
light: B1 light
notes: as for B1
B21: GpH7-A5/GpH7-B3 variant I332_12R/GpL16-k0 (antibody, human IgG1, kappa)
heavy 1: not shown
heavy 2: not shown
light: B1 light
notes: as for B1
B22: GpH7-A5/GpH7-B3 variant E333_12R/GpL16-k0 (antibody, human IgG1, kappa)
heavy 1: not shown
heavy 2: not shown
light: B1 light
notes: as for B1
B23: GpH7-A5/GpH7-B3 variant A330_03V/GpL16-k0 (antibody, human IgG1, kappa)
heavy 1: not shown
heavy 2: not shown
light: B1 light
notes: as for B1
B24: GpH7-A5/GpH7-B3 variant P329_02A/GpL16-k0 (antibody, human IgG1, kappa)
heavy 1: not shown
heavy 2: not shown
light: B1 light
notes: as for B1

These binders were tested against T1, FcγRIIb extracellular domain with … (assay: SPR, binding relative to GpH7-A5/GpH7-B3/GpL16-k0 = 100).

Row | He/Con_2b | Binder
1 | 94.7 % of control | B1
2 | 92.5 % of control | B2
3 | 41.7 % of control | B3
4 | 94.8 % of control | B4
5 | 95 % of control | B5
6 | 76.1 % of control | B6
7 | 70.1 % of control | B7
8 | 70.5 % of control | B8
9 | 92.8 % of control | B9
10 | 81.4 % of control | B10
11 | 94.6 % of control | B11
12 | 97.7 % of control | B12
13 | 94.4 % of control | B13
14 | 83.5 % of control | B14
15 | 63.1 % of control | B15
16 | 81.8 % of control | B16
17 | 83.8 % of control | B17
18 | 90.3 % of control | B18
19 | 88.4 % of control | B19
20 | 95 % of control | B20
21 | 48.9 % of control | B21
22 | 80.4 % of control | B22
23 | 52.4 % of control | B23
24 | 40.5 % of control | B24

Each binder was assayed against T2, FcγRIa extracellular domain with C-terminal His tag (human, UniProt P12314 16-292) in the same assay as above.
T2 construct: extracellular domain; soluble analyte in Biacore; also called FcgRI; not shown: His tag at the C terminus
T2 sequence (P12314 16-292): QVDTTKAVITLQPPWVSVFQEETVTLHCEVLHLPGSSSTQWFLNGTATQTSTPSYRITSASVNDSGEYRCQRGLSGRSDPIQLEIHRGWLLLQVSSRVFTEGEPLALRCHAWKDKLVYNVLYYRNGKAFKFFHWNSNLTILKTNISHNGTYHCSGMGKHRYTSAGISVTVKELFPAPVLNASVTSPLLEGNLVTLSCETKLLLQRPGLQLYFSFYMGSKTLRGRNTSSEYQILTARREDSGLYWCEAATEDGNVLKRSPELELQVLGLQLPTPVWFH

Row | He/Con_1a | Binder
25 | 103 % of control | B1
26 | 104 % of control | B2
27 | 101 % of control | B3
28 | 106 % of control | B4
29 | 103 % of control | B5
30 | 108 % of control | B6
31 | 107 % of control | B7
32 | 107 % of control | B8
33 | 106 % of control | B9
34 | 103 % of control | B10
35 | 102 % of control | B11
36 | 102 % of control | B12
37 | 101 % of control | B13
38 | 113 % of control | B14
39 | 102 % of control | B15
40 | 103 % of control | B16
41 | 103 % of control | B17
42 | 105 % of control | B18
43 | 121 % of control | B19
44 | 102 % of control | B20
45 | 100 % of control | B21
46 | 102 % of control | B22
47 | 106 % of control | B23
48 | 102 % of control | B24
